Measured values reported in article PMC3865065 (Nature, 2013).

Biological target: T1, extracellular Venus Flytrap (VFT) module of human GBR2 (human, UniProt O75899 42-466, carbohydrate at Asn404)
T1 sequence (looked up): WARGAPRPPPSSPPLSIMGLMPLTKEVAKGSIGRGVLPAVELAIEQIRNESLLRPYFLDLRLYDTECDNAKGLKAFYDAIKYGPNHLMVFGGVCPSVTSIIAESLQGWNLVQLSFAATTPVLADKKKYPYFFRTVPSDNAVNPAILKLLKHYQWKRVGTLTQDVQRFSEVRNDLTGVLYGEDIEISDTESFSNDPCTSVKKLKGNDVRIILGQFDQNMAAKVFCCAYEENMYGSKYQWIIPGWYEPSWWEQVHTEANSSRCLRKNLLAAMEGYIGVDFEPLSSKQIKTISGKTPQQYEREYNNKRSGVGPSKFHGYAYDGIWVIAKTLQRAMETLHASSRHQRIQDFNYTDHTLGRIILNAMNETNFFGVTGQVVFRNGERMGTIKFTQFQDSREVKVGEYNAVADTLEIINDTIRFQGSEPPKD
Test: crystal structure

B1: extracellular Venus Flytrap (VFT) module of human GBR1b (domain or fragment, UniProt Q9UBS5-2 48-459, looked up)
chain: SERRAVYIGALFPMSGGWPGGQACQPAVEMALEDVNSRRDILPDYELKLIHHDSKCDPGQATKYLYELLYNDPIKIILMPGCSSVSTLVAEAARMWNLIVLSYGSSSPALSNRQRFPTFFRTHPSATLHNPTRVKLFEKWGWKKIATIQQTTEVFTSTLDDLEERVKEAGIEITFRQSFFSDPAVPVKNLKRQDARIIVGLFYETEARKVFCEVYKERLFGKKYVWFLIGWYADNWFKIYDPSINCTVDEMTEAVEGHITTEIVMLNPANTRSISNMTSQEFVEKLTKRLKRHPEETGGFQEAPLAYDAIWALALALNKTSGGGGRSGVRLEDFNYNNQTITDQIYRAMNSSSFEGVSGHVVFDASGSRMAWTLIEQLQGGSYKKIGYYDSTKDDLSWSKTDKWIGGSPPAD
modifications: carbohydrate at Asn323 and Asn365 (seen in apo and antagonist-bound structures)
  binding result: binds
